The values that follow come from paper PMC8528422.

In this assay the target is FleQ, full length (FleQFL) (Pseudomonas aeruginosa) (UniProt G3XCV0).
Chain of FleQ, full length (FleQFL) (Pseudomonas aeruginosa) (G3XCV0 whole entry): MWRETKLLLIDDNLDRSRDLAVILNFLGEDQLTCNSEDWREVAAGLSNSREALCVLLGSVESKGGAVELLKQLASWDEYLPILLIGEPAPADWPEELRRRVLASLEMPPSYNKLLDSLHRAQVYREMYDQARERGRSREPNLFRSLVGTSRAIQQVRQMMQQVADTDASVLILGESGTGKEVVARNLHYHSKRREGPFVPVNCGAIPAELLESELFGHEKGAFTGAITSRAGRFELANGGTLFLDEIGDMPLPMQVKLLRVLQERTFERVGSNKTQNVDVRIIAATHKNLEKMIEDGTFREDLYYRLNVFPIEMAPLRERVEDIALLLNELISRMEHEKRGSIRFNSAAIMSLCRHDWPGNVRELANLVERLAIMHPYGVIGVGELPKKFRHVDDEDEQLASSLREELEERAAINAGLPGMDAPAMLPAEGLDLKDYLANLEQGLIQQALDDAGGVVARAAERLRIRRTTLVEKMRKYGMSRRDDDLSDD

Turning to PANPRGHLEFFVERLVQHPATGSAV [C-terminal peptide of FleN comprising the last 25 amino acids], the ATPase activity of FleQ (1 μM) left with 100 μM C-terminal peptide of FleN amounted to 66%.
